Assay results as given in US20250320288A1, “METHOD OF TREATING VITILIGO WITH INTERFERON-GAMMA ANTIBODY” (Elixiron Immunotherapeutics (Hong Kong), priority 2022, published 2025).
“Also recorded” adds a separate entry of the source.

Tests used:
[1] = biological target: T1, recombinant human IFN-γ (Homo sapiens, UniProt P01579); assay: EI-001 neutralization of IFN-γ, restoration of melanocyte melanogenesis; type: cell-based; conditions: addition of 2A6Q
T1 sequence (P01579 24-161 limits assumed): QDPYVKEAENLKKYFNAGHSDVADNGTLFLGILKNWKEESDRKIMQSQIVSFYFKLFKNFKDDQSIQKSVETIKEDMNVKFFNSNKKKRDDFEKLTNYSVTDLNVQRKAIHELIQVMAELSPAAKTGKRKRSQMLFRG
Description: Materials and methods: To examine the dose-dependency of IFN-γ inhibition of HEMn-DP cell melanogenesis, HEMn-DP cells were seeded into a 24-well plate at a concentration of 200,000 cells/well in 1 mL assay medium (M254 supplemented with 1× HMGS, 10 ng/mL PMA plus Penicillin-Streptomycin) with serial dilutions of IFN-γ, followed by incubation at 37° C. for 7 days. The cell assay medium was replaced by fresh medium with serially titrated concentrations of IFN-γ on day 3 and day 5. On day 7, cells were first washed with PBS twice, lysed in 250 μL of 1N NaOH/10% DMSO solution, then incubated at 80° C. for 1 hr. After lysis, each lysate was transfer to 96 well plate, and absorbance of melanin was then measured at […]. The relative melanin quantity was normalized with cell viability of each sample which was measured by CellTiter-Glo kit, and data were analyzed using nonlinear regression curve fit using GraphPad Prism7. To determine the potency of EI-001, HEMn-DP cells were seeded as previously described, and IFN-γ pre-incubated with indicated amounts of EI-001 for 25 min in 1 mL of assay medium. After incubation, the mixture was added to each well (final IFN-γ concentration is 20 ng/ml). Melanin content of melanocytes was determined as previously described.

[2] = system: CXCR3 expression on CD4+ T cells; assay: CXCR3 expression on CD4+ T cells of activated PBMCs (flow cytometry); type: cell-based, human; conditions: 3 individual donors
Description: Materials and methods: PBMCs from healthy adult donors were isolated from whole blood using Ficoll-Paque density gradient centrifugation. PBMCs were cultured in a humidified 37° C. incubator for 24 hours in RPMI-1640 culture medium supplemented with 5% human serum, and standard antibiotics, 2-ME and HEPES. PBMCs were then seeded at 1×10^6 cells/well with 1 mL fresh culture medium/well in a 24-well plate and stimulated by mixing cells with human T cell TransAct (1:200). Antibodies indicated in the Results were then added and mixed well. After 2 days of culture, PBMCs were collected, washed with PBS three times, re-suspended in culture medium and re-cultured with indicated antibodies for an additional 2 days.
PBMCs were treated as required (see above) and then harvested for flow cytometry antibody staining, using anti-human CD4, anti-human CD8, anti-human CD56 and anti-human CXCR3 antibodies for 30 minutes on ice in the dark. PBMCs were then washed twice with FACS buffer and the expression of CXCR3 determined by flow cytometry using an Attune NxT flow cytometry. Flow cytometry data analysis was performed using FlowJo software.

[3] = system: SLC7A11; assay: Ferroptosis regulators in melanocytes (RNA sequencing, SLC7A11 immunoblot); type: cell-based, human; conditions: melanocytes
From the text: Total RNA was extracted from melanocytes with an RNA purification kit (Zymo Research, r2050). After RNA samples were extracted from primary melanocytes and melanocytes cell line (Gibco), the samples were sent to Biotools Co., Ltd Taiwan for RNA sequence. The RNA quality was examined by Agilent Technologies 2100 Bio-analyzer with an RNA integrity value greater than 8. After rRNA depletion (Epicenter), RNA fragmentation, and library preparation (Illumina), the constructed libraries were then performed 150 bp paired-end sequencing by an Illumina NovaSeq6000 sequencer. The results from each sample were aligned to the GRCh38 genome by the HISAT2 software and analyzed by Biotools Co., Ltd Taiwan.
Cells were washed in PBS and lysed in RIPA lysis buffer with proteases inhibitor and Phenylmethanesulfonyl fluoride (PMSF; Sigma-Aldrich, P7626). The total cell lysates were sonicated and centrifuged at 4° C., 13000 rpm for 30 min. Protein concentration was quantified using the Bradford assay. The total cell lysates were separated by SDS-PAGE and transferred to a PVDF membrane. The membrane was blocked with 5% BSA or 5% milk in TBST for 1 hour at room temperature and incubated with primary antibodies overnight at 4° C. and HRP-conjugated secondary antibodies for hour at room temperature. The protein was visualized by Thermo ibright1500. Primary antibodies were follows: anti-human SLC7A11 (CST, 12691), anti-human SLC3A2 (CST, 13180), anti-IRF1 (CST, 8478), anti-MITF (CST, 12590), and anti-GAPDH (Abcam, ab8245).

[4] = system: primary melanocytes; assay: Melanocyte cell viability after IFN-γ, chemokines, cell death inhibitors or 2A6Q, Day 2 and Day 7; type: cell-based, human; conditions: melanocytes with IFN-γ, up to seven days; listed as 2A6Q
Description: To determine cell viability of melanocyte after treatment with IFN-γ, CXCL9, CXCL10, CXCL11, at Day 2, and Day 7, the cells were collected and seeded into 96-well plates. After adhesion, cells were treated with IFN-γ (0, 10, 100 ng/ml) with different compounds: 2A6Q, CXCL9, CXCL10, CXCL11, ROS scavenger (NAC), necroptosis inhibitor (NEC-1), pyroptosis inhibitor (VX-765), apoptosis inhibitor (QVD-OPH), Ferroptosis inhibitor (Liproxstaitin-1, Ferrostatin-1, DFO). Cell viability was measured using a CellTiter-Glo luminescent cell viability assay kit (Promega) according to the manufacturer's protocol. The […] of the final reaction product was measured using a luminometer (SpectraMax® iD3 Multi-Mode Microplate Reader (Molecular Devices). After calculation, the viability of control cells was 100%, and all others were normalized to control and shown as relative cell viability (%). Treatment dosage N-acetylcysteine (NAC; 0.05 mM, 1 mM), Necrostatin-1 (NEC-1; 20 μM, 2 μM), Belnacasan (VX-765; 50 μg/mL, 5 μg/mL), Quinoline-Val Asp-Difluorophenoxymethylketone (QVD-OPH; 10 μM, 2 μM), Liproxstaitin-1 (10 μM, 5 μM, 1 μM, 0.05 μM), Ferrostatin-1 (5 μM, 1 μM), Deferoxamine (DFO; 10 μM, […], 1 μM, 0.05 μM), 2A6Q (10 μg/mL), CXCL9 (10 ng/mL, 10 pg/mL), CXCL10 (10 ng/ml, 10 pg/mL), CXCL11(10 ng/mL, 10 pg/mL).

[5] = system: melanocytes; assay: Lipid peroxidation in melanocytes (BODIPY 581/591 C11); type: cell-based, human; conditions: melanocytes
Description: For lipid peroxidation examination, melanocyte cells were seeded in a 6-well plate and treated with IFN-γ the next day. Melanocytes were washed with PBS and incubated with Hanks balanced salt solution (HBSS, Gibco) containing 5 μM BODIPY 581/591 C11 (Invitrogen, D3861) and incubated for 15 minutes at 37° C. in a tissue culture incubator. The cells were resuspended with fresh HBSS and examined with flow cytometry; the data were analyzed with FlowJo.

B1: EI-001: human monoclonal anti-IFN-γ neutralizing antibody; VH SEQ ID NO: 165, VL SEQ ID NO: 113; N76Q removes VH glycosylation site (antibody, listed as Homo sapiens, V domains shown)
VH: EVQLVESGGGLVKPGDSLTVSCVASGFTFSNYFIHWVRQAPGKGLEWVATISGRTKYMFYSDSLRGRFTVSRDNAQNSVYLHMSSLRGEDTALYYCVRGYDHSDSNSAADLLHWGRGTLVTVSS
VL: NFMLTQPLSVSGYPGKTIVISCVRSSGSVASHYVQWFQQRPGSAPAMVIYEDSHRPSGIPDRFSGSVDASSNSASLTISGLKTEDEADYFCQSYYGNNQVLFGGGTKLTVL
modifications: Recombinant variant antibody sequence
notes: human monoclonal anti-IFN-γ neutralizing antibody; N76Q removes VH glycosylation site
[1]
  rescue of IFN-γ induced decrease in melanin content: can be rescued; also recorded: reverses
[2]
  IC50 of EI-001 to inhibit CXCR3 expression on CD4+ T cells: 0.279 to 1.313 µg/mL
[3]
  reversal of ferroptosis as demonstrated by SLC7A11: reverses ferroptosis
[4]
  rescue of IFN-γ induced melanocyte cell death (cell viability): more profound than all other cell death inhibitors; also recorded: rescue cell viability of melanocyte in a time-dependent manner
[5]
  reversal of IFN-γ induced lipid peroxidation: reverses
